# Data published in patent US20190212291.
# How the values were obtained:
# [1] = tested on: PEG-T48-Q
# [2] = tested on: PEG-T58-Q
# [3] = tested on: PEG-T38-Q
# [4] = tested on: PEG-T2-Q
# [5] = tested on: PEG-T51-Q
# [6] = tested on: PEG-T43-Q
# [7] = tested on: PEG-T56-Q
# [8] = tested on: PEG-T3-Q
# [9] = tested on: PEG-T7-Q
# [10] = tested on: PEG-T1-Q
# [11] = tested on: PEG-T54-Q
# [12] = tested on: PEG-T24-Q
# [13] = tested on: SB14
# [14] = tested on: T1, PEG-T39-Q
# T1 sequence: GGGSGRSANAKGKGC
# [15] = tested on: T2, PB2
# T2 sequence: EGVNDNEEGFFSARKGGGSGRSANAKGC
# Sequence of MMP9 (chain, as listed by the source): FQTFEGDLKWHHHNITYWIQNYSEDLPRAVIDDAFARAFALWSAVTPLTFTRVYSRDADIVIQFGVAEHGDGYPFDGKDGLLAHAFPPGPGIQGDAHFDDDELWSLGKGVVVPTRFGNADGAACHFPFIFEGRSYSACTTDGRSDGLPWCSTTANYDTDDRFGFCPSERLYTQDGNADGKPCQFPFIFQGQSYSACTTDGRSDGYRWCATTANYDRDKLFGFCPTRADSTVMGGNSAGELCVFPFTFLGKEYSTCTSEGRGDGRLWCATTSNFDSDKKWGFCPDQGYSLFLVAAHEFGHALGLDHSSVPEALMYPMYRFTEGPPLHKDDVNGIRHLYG
# Sequence of HPN (chain, as listed by the source): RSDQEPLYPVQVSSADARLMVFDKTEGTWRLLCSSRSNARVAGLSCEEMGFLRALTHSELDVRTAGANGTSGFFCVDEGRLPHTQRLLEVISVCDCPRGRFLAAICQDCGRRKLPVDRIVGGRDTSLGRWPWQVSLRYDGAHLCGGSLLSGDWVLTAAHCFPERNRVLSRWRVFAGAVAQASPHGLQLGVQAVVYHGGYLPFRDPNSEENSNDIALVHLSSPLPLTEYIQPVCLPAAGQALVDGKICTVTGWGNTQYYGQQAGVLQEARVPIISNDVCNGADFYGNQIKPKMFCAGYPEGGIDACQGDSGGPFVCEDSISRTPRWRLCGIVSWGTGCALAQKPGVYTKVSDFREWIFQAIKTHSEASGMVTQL
# Sequence of MMP3 (chain, as listed by the source): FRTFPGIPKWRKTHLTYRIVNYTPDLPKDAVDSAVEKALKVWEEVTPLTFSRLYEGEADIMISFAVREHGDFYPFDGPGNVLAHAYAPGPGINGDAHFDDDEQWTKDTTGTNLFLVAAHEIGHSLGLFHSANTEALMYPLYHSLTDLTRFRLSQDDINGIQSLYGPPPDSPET
# Sequence of MMP10 (chain, as listed by the source): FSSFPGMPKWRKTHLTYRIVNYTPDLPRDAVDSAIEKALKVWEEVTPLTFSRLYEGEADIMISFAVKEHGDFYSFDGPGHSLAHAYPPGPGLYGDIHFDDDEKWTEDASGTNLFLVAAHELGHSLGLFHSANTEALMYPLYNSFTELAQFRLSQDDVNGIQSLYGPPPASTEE
substance,measurement,setting,value
HPN,Top hit (cleavage of PEG-coupled FRET substrate by recombinant proteases),[1],HPN
same,Top hit (cleavage of PEG-coupled FRET substrate by recombinant proteases),[2],HPN
KLK2,Second hit (cleavage of PEG-coupled FRET substrate by recombinant proteases),[1],KLK2
same,Top hit (cleavage of PEG-coupled FRET substrate by recombinant proteases),[3],KLK2
same,Top hit (cleavage of PEG-coupled FRET substrate by recombinant proteases),[4],KLK2
KLK3,Second hit (cleavage of PEG-coupled FRET substrate by recombinant proteases),[5],KLK3
same,Second hit (cleavage of PEG-coupled FRET substrate by recombinant proteases),[4],KLK3
MMP3,Top hit (cleavage of PEG-coupled FRET substrate by recombinant proteases),[6],MMP3
same,Second hit (cleavage of PEG-coupled FRET substrate by recombinant proteases),[7],MMP3
MMP9,Top hit (cleavage of PEG-coupled FRET substrate by recombinant proteases),[8],MMP9
same,Top hit (cleavage of PEG-coupled FRET substrate by recombinant proteases),[9],MMP9
same,Top hit (cleavage of PEG-coupled FRET substrate by recombinant proteases),[10],MMP9
MMP10,Top hit (cleavage of PEG-coupled FRET substrate by recombinant proteases),[7],MMP10
MMP13,Second hit (cleavage of PEG-coupled FRET substrate by recombinant proteases),[11],MMP13
same,Top hit (cleavage of PEG-coupled FRET substrate by recombinant proteases),[12],MMP13
same,substrate cleavage,[12],selectively cleaved by MMP13 and uPA
same,substrate cleavage in vitro,[12],"in vitro, these substrates are cleaved by proteases overexpressed in PC3 cells, MMP13 and uPA"
same,substrate cleavage assay,[13],"MMP13 substrate, expressed by PC3"
uPA,Top hit (cleavage of PEG-coupled FRET substrate by recombinant proteases),[14],uPA
same,substrate cleavage,[14],selectively cleaved by MMP13 and uPA
same,substrate cleavage in vitro,[14],"in vitro, these substrates are cleaved by proteases overexpressed in PC3 cells, MMP13 and uPA"
same,substrate cleavage assay,[15],"uPA substrate, expressed by PC3"
